According to US11274129B2, “Methods for protein tyrosine phosphorylation profiling with variant SH2 domains” (priority 2016, dated 2022):

Test system: mixture of 40 different pTyr-including peptides derived from ITRMs
Test: Capture of pTyr-including peptides from a mixture of ITRM peptides by QuadM-TrM tandem Superbinder versus TrM human Src SH2 Superbinder, scheduled PRM
Assay type: binding
Conditions: for (QT-TrM)/mean: QuadM-TrM tandem vs TrM human Src SH2 Superbinder, PRM peak area
Source text: A QuadM-TrM tandem Superbinder (SEQ ID NO: 15) was produced in E. Coli by expressing a recombinant DNA that contained the gene encoding the QuadM human Src Superbinder (SEQ ID NO: 12) in tandem with the gene encoding the TrM human Src Superbinder (SEQ ID NO: 5). Equal molar amounts (200 pmole) of the QuadM-TrM tandem Superbinder and the TrM human Src SH2 Superbinder were used to capture pTyr-including peptides from a mixture of 40 different pTyr-including peptides (200 fmole each) derived from ITRMs. The isolated peptides were identified by scheduled PRM and quantified based on the corresponding MS peak area.
Shown are the relative preferences of each pTyr-including peptide for the QuadM-TrM tandem Superbinder versus the TrM human Src SH2 Superbinder, as defined by the value of “(QT-TrM)/Mean”, where “QT” represents the amount of pTyr-including peptide captured by the QuadM-TrM tandem Superbinder, “TrM” represents the amount of pTyr-including peptide captured by the TrM human Src SH2 Superbinder, and “Mean” represents the mean amount of pTyr-including peptide captured by both the QuadM-TrM tandem Superbinder and the TrM human Src SH2 Superbinder. Yellow and blue shaded boxes indicate hydrophobic and hydrophilic residues, respectively, at the pTyr+3 position in the sequence of the pTyr-including peptide.

B1: QuadM-TrM tandem Superbinder: QuadM human Src Superbinder in tandem with the TrM human Src Superbinder in a single protein (protein)
chain: DSIQAEEWYFGKITRRESERLLLNAENPRGTFLVRESETVKGAYALSVSDFDNAKGLNVRHYLIRKLDSGGFYIWSRTQFNSLQQLVAYYSKHADGLSHRLTTVSPTSKGGSGGSMDSIQAEEWYFGKITRRESERLLLNAENPRGTFLVRESETVKGAYALSVSDFDNAKGLNVRHYLIRKLDSGGFYITSRTQFNSLQQLVAYYSKHADGLSHRLTTVSPTSK
modifications: SH2 protein domain; QuadM-TrM human Src SH2 tandem domain
200 pmole Superbinder, 200 fmole each peptide
  capture of pTyr-including peptides relative to the TrM human Src Superbinder: improved capture of pTyr-including peptides
Peptide ARFGAP2_pY445 EVDAEpYEAR
  (QT-TrM)/mean: 0.3
Peptide ARHGAP15_pY219 SSSTELLSHpYDSDIK
  (QT-TrM)/mean: 0.3
Peptide ARHGEF6_pY644 KPSEEEpYVIR
  (QT-TrM)/mean: 1.2
Peptide ARID1A_pY229 SAYPPPAPApYALSSPR
  (QT-TrM)/mean: 0.3
Peptide ASNS_pY216 DVPLHALpYDNVEK
  (QT-TrM)/mean: 0.3
Peptide C9orf78_pY277 ATDDpYHYEK
  (QT-TrM)/mean: 0.6
Peptide CD3D_pY160 DDAQpYSHLGGNWAR
  (QT-TrM)/mean: 0.3
Peptide CD3E_pY188 ERPPPVPNPDpYEPIR
  (QT-TrM)/mean: 0.5
Peptide CD3E_pY199 DLpYSGLNQR
  (QT-TrM)/mean: 0.0
Peptide CD3G_pY160 QTLLPNDQLpYQPLK
  (QT-TrM)/mean: 0.2
Peptide CD3G_pY171 EDDQpYSHLQGNQLR
  (QT-TrM)/mean: 0.0
Peptide CD28_pY206/209 HpYQPpYAPPR
  (QT-TrM)/mean: 0.3
Peptide CD28_pY218 DFAApYR
  (QT-TrM)/mean: 1.3
Peptide CD84_pY296 IpYDEILQSK
  (QT-TrM)/mean: −0.1
Peptide CD84_pY316 EEPVNTVpYSEVQFADK
  (QT-TrM)/mean: 0.1
Peptide CD247_pY72 SADAPAYQQGQNQLpYNELNLGR
  (QT-TrM)/mean: 1.5
Peptide CD247_pY111 NPQEGLpYNELQK
  (QT-TrM)/mean: 0.0
Peptide CD247_pY142 GHDGLpYQGLSTATK
  (QT-TrM)/mean: 0.4
Peptide CLPTM1L_pY527 VNEFGESpYEEK
  (QT-TrM)/mean: 0.3
Peptide DBN1_pY34 ALpYTYEDGSDDLK
  (QT-TrM)/mean: 0.0
Peptide EXOC4_pY51 LEEApYEK
  (QT-TrM)/mean: 0.5
Peptide HCLS1_pY175 AALGpYDYK
  (QT-TrM)/mean: 0.3
Peptide ITK_pY512 FVLDDQpYTSSTGTK
  (QT-TrM)/mean: 1.0
Peptide LAT_pY110 DSDGANSVASpYENEGASGlR
  (QT-TrM)/mean: −0.2
Peptide LAT_pY220 EpYVNVSQELHPGAAK
  (QT-TrM)/mean: 0.2
Peptide LCP1_pY300 AYpYHLLEQVAPK
  (QT-TrM)/mean: 0.4
Peptide LIMD2_pY102 GNpYDEGFGR
  (QT-TrM)/mean: 0.0
Peptide PJA2_pY28 AVWPKPAGGpYQTITGR
  (QT-TrM)/mean: 0.4
Peptide PLCG2_pY1245 EFSVNENQLQLpYQEK
  (QT-TrM)/mean: 1.2
Peptide PTPN7_pY149 AQSQEDGDpYINANYIR
  (QT-TrM)/mean: 0.0
Peptide RBMX_pY335 SDLpYSSGR
  (QT-TrM)/mean: 0.6
Peptide RFTN1_pY20 RPGNIpYSTLK
  (QT-TrM)/mean: 0.3
Peptide SIT1_pY148 pYSEVVLDSEPK
  (QT-TrM)/mean: −0.2
Peptide SPEN_pY1399 ASALpYESSR
  (QT-TrM)/mean: −0.1
Peptide THUMPD1_pY22 AQpYVLAK
  (QT-TrM)/mean: −0.2
Peptide TLR7_pY1041 NALATDNHVApYSQVFK
  (QT-TrM)/mean: 0.1
Peptide TRAF3IP3_pY178/179 GQQIpYpYHK
  (QT-TrM)/mean: 0.9
Peptide TRAF3IP3_pY179 GQQIYpYHK
  (QT-TrM)/mean: 1.5
Peptide ZAP70_pY164 MPWpYHSSLTR
  (QT-TrM)/mean: 0.2
Peptide ZAP70_pY292 IDTLNSDGpYTPEPAR
  (QT-TrM)/mean: 0.3
